Test results reported in patent US10835608B2, “Polymer-carbohydrate conjugates for drug delivery technology” (priority 2013, dated 2020).

Assay: Solubility study of propofol: minimum conjugate concentration required to solubilize propofol
Format: physicochemical
Conditions: 1% (w/v) propofol in saline based solution
Text: Table 15 listed the minimum concentration of the conjugates required to solubilize propofol as a solubility test reference.

Substance	Concentration (minimum concentration of the conjugate required to solubilize propofol) [% w/v]	Conjugate concentration needed to solubilize propofol, comparison in words
Cholesterypropanediaminegluconate-mPEG11	5.3	much high conjugate concentration was required
Cholesterypropanediamineascorbate-mPEG11	4.6	
Cholecalciferol-diethylene-triamineisomal-totriose-mPEG11	2.2	
Cholesterypropanediaminelactobionate-mPEG11	3.2	
Retinoylpropanediaminelactobionate-mPEG11	2.9	
Cholesterypropanediamineisomaltotriose-mPEG11	2.0	
Cholesterytriethylenetetraminelactobionate-di-mPEG11	1.6	
Tocopherylpropanediaminelactobionate-mPEG11	3.3	the lowest molar concentration

Assay: Solubility study of voriconazole: minimum polymer to drug ratio required to solubilize voriconazole
Conditions: 1% (w/v) voriconazole in saline based solution
Experimental: 1% (w/v) of voricazole was prepared in a saline based solution with different PEG-carbohydrate conjugates.

Substance	Polymer concentration needed to solubilize voriconazole, comparison in words	Solubilizing Voriconazole (min. polymer to drug ratio)
N,N,N-oleoyl-lactobionoyl-mPEG(12)propanediamine	much high concentration	20
